Assay results published in the supplement of paper PMC12764529.
± gives the half width of the 95% confidence interval.

Assay: folding stability dG unfold from trypsin proteolysis; higher = more stable
Outline: (§1)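 Mini-proteins designed to be under 80 residues and free of cysteine were carried in a PA-tagged cDNA display construct and digested with trypsin and with chymotrypsin. Each protease was applied at 11 threefold-diluted concentrations, alongside a no-protease condition, before sequencing. K50 came from Bayesian fitting of the sequencing counts, and unfolding free energy was obtained by comparing it with a sequence-predicted unfolded-state K50 and a shared folded-state K50, for each protease separately or for both together. Designs were retained only if their AlphaFold2 dimer inter-PAE exceeded 15.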

| Sequence | folding stability dG unfold [kcal/mol] |
| --- | --- |
| SAGGSAGGSAGSVTVTFISLEEGERYLVLTELRFGDYGIESRSTRIEVSDEKLEELKKAFSAGGSAGGSAGG [r11_47_TrMRF] | 1.52 ± 0.072 |
| SAGGTIKITIKAENLTEEEKEELAKKIADELKKKGYKVKKVEVTVEKEKEKTVTITLENGKKIEVKLSAGGS [r8_485_TrROS_Hall] | 1.49 ± 0.072 |
| SAGGMMYLKLKVKNKNGEEIEVLIEFDEKTGKAYIYNKKTGKKIEMTLEELLKQENIEIEEIEPLPEPSAGG [r13_994_TrROS_Hall] | 2.89 ± 0.12 |
| SAGGSAPAKVEPLRVKIEFTPPNGEKHTFPMEIHRVHDNAIEIQDGGQPIRIPPNLDNIQITDIELSAGGSA [r15_510_TrROS] | -0.614 ± 0.34 |
| SAGGSAVPTVRATFRYPDGLVAELEVPVLPDGTPRVVLRVGGVEREVSLEELARLPPEFELVSVDPSAGGSA [r2_431_TrMRF] | 0.517 ± 0.073 |
| SAGMDFPESYTPIASNGKTLVFKSPTEVYIVLYSPEGGSEVRSFTPGDESVLNPFLEELKKSDYVNLNISAG [r14_12_JUSTAS] | 0.695 ± 0.028 |
| SARILRVEFEPFPLTERARLRLEVEDEDNDFPYEVDIELEVLPDPSEVRLRLVVRRPDGSRRELELRLFSAG [r14_10_TrMRF] | 3.56 ± 0.086 |
| SAGGRIKDIEPIPPNDPPGQKLTIKFPDGGPIEIPMEKEPDENGPYYYKFKLQVNNGEIEVMFRIPNSAGGS [r8_360_TrROS] | 3.73 ± 0.25 |
| SAGMKVILIIAPEEKIEEIFEEIKKIAEEHGLDLKLDKIEPLPEKGYLVIVTVKNPESDETTVILVLVPSAG [r5_41_TrMRF] | 2.96 ± 0.096 |
| SAGGSETVRVEVEVELENGYRVRVEMEFDLETKEMTMRVEVEPVLELSPEELEKLKKLLEELGIEVSAGGSA [r2_304_TrROS_Hall] | 2.91 ± 0.27 |
| SAGGSGTESKEYPDSKVTVTPVPLPLGDGAPVLRVTTVPKLPNGEPVTTVTLVDPDSDVVVTEETLSAGGSA [r2_484_JUSTAS] | -0.0208 ± 0.028 |
| SAGGSAGGSAGGMKITLTVPSEEEIEALTPPDAKITEIKKIGKDPVKGLPYYEVVLDPSSAGGSAGGSAGGS [r10_256_JUSTAS] | -1.42 ± 0.44 |
| SAGGSAGGSAGGPRPLRRELRIRRRFRFRVLGLEEGEPRPREFEVEVELVLVETRGPGESAGGSAGGSAGGS [r10_118_TrMRF] | 2.65 ± 0.082 |
| SAGKIKPGQKIKIKITSIEKLKDGTIKIKAEIELEEKGYKITIEAEIKYDKKTKKLTIKVKIKIEPKPSAGG [r19_342_TrROS_Hall] | 3.26 ± 0.14 |
| SMPEVRVEEVTIELEFTLPDGRTVRVEIRLTRVTLPDGRVFTRLEIKVEVPEEDEEARKLLKELLEELLSSA [r9_908_TrROS_Hall] | 4.52 ± 0.14 |
| SAGGSAGGSAGGMTTTTTAPESGDLVTIHPEKGIAVVTSPEGKVTEVPIDPDDYSVEPASAGGSAGGSAGGS [r10_568_JUSTAS] | 0.343 ± 0.076 |
| SAGGEFLEKVIEAAIEAAKAGPDAKLELTIPVPGGPVKVTIEVGEDGKVKVTIYKGDKKILEIELPLSAGGS [r16_611_TrMRF] | 3.85 ± 0.35 |
| SAGGKITIEIEEEDGYLVIRIREEKEVYDEETGELKKEEKEITIVLPLEEAKKLAEELNLEIEIVEPSAGGS [r8_337_TrROS_Hall] | 2.09 ± 0.079 |
| SAGGLTVTLTDSSGNPVTVETELLPDNTLVLTITRTTPSGKTYTRTGIVSIDNTTINLVSFSEWTEDPSAGG [r13_451_JUSTAS] | 2.79 ± 0.097 |
| SAGGPFDDFEPLGTIPFKVNGMEIEIQIWRMKNPGHYMVDIRNPGFGIPVMYWVPPGDIEEILDLIRSAGGS [r8_469_TrROS] | 2.22 ± 0.078 |
| SAGGSAGGSMKIYEVPPEVAENMSLEEIIESLVLPGYPAKAEAFEDEGPGYVLVDLFLPPELGSAGGSAGGS [r12_716_TrMRF] | -0.666 ± 0.12 |

| Sequence | folding stability dG unfold [kcal/mol] |
| --- | --- |
| SAGGSAGGKKKYLVKITIKYVDKKTGKLVKEETITVEVSEEELEELLKKLPPGAEITKIEIYKLSAGGSAGG [r6_776_TrROS_Hall] | 2.96 ± 0.13 |
| SMKIKSIKIEPIRIGDEEYFLIPIEVDGEEIPPEEVKRLVEELFEKLGLPLDPVLLEDPESDIVLVLARGSA [r9_717_TrMRF] | 1.82 ± 0.053 |
| SAGGSAGGSSPSTSSERRIELPGGEEAEVFFYPSSGKILVRFPDREVEYYVEDDGKIVKKDPLSAGGSAGGS [r12_47_JUSTAS] | 0.478 ± 0.063 |
| KIPITIEEDPEDKMYELRVPDGMPIQIQRSKDGYRVSIWNPDNGKPREIPITKKDLKDLLSNPGFWIEIYKS [r1_18_TrROS] | 1.64 ± 0.062 |
| SAGGSAGGSAGGMKKPILLPGETEEDVLERIKKLPKDYKVTIEKLDDDKLLVTITSPKLGSAGGSAGGSAGG [r7_662_JUSTAS] | 0.877 ± 0.14 |
| SAGGSAGGSMSTSLSLSSAPGVSVVTTAHPDSTVVTEQPPDGSRVVRVLDPAGELVAEEAVAPSAGGSAGGS [r12_471_JUSTAS] | -0.623 ± 0.36 |
| SAGGSAGGSAGGLEELKKGFKKPVFVAKIEKEVRLLPNGDLIVRYKIEGPDLELELVFSSAGGSAGGSAGGS [r10_160_TrMRF] | 2.6 ± 0.12 |
| MTLLIPLPPAFPDLTPEQVLDLLRELFLSPDEEATAEENPETGSVTVTVRRGDEEYVFTFYPDGYLVLEPGS [r1_131_TrMRF] | 2.85 ± 0.04 |
| SAGGSAGGSAGMVYITKGKDGIWYEAEVDPTKPGAKVKVRHPLTGKEEEITPAEVVAVPPSAGGSAGGSAGG [r11_822_TrMRF] | 0.141 ± 0.15 |
| KTLVIHAKTPEEILAAIKEAIKEGKTVVIEMSPELIEALKEAGFEIEKIEEVEEIDGKKIYRVVIEVKPKES [r1_173_TrROS_Hall] | 1.66 ± 0.084 |
| SAGGSAGGSKLTIMVKMDSAEDAEEEARSLLKELGIKPGMKEVKVSMFPRGNEYYAHVEIKFKSAGGSAGGS [r12_7_TrROS] | 0.672 ± 0.038 |
| SAGGSAGGMKVTTEGNAAGTNTVTVSYPDGSSVTRTLAPDDVVEVPVGGEVVLTVTVTANPDLPSAGGSAGG [r6_583_JUSTAS] | -0.0728 ± 0.1 |
| SAGGSASTVTRTRTIPGSGLTVEITETPLPDGTYSYTVTFYAPDSALKTTPKTAAPDELPEEELLSSAGGSA [r15_147_JUSTAS] | 0.35 ± 0.049 |
| SDKLAKLLEDELEKAGYEVVSVEVRYDPEKGLLYVNALVRRKDDPTWYRVRAVYNPETDELLEVKIEPLPSA [r9_814_TrMRF] | 5.58 ± 0.21 |
| SMKFTITLSNPVDGTTETIPLDVPLEELVKIIKEAHEKGGTVTITGLPEELAKEIAEKSGLDVSINPAPGSA [r9_1207_JUSTAS] | 3.13 ± 0.14 |
| SAGGSAGGSASMAPPEVLSLPVEILEKSPDGSVTVLVPETGEVLTFPSPKVNVTPDGTLNLSSAGGSAGGSA [r18_89_JUSTAS] | 0.416 ± 0.042 |
| SAGGSAGGSMELVIPKEEVEKMSEEVVKKIKELAKKANISISETEDSLVIPIKKVSEKVIKELSAGGSAGGS [r12_945_JUSTAS] | -0.325 ± 0.075 |
| SAGGSAGGSMEPRPVVITFRDPEGNFIGTVELPAEFESEEEALAAAEAVRAANPGYTVEIEGLSAGGSAGGS [r20_201_JUSTAS] | 1.67 ± 0.084 |
| SAGGSAGGSAGGSMTVTVTLKDGSTRTFAVPADAPLTLEQLEAAGYPAADIAEVTVTAESAGGSAGGSAGGS [r10_565_JUSTAS] | 1.88 ± 0.049 |
| SAGGSAKKEVYKINIKVYNKNGKKVKEIKIELPEELKGKTIEEIAKELAKKLNIEKIEVKIEPVKPSAGGSA [r15_333_TrROS_Hall] | 1.61 ± 0.18 |
| SAGGSAGGSAGGWYIYFPNHYYPIKKITINPGGNIEIEFPNGNERTFDNVSIMPPGQEISAGGSAGGSAGGS [r10_1151_TrROS] | 0.178 ± 0.047 |

Assay: folding stability dG unfold from chymotrypsin proteolysis; higher = more stable
Outline: as §1

| Sequence | folding stability dG unfold [kcal/mol] |
| --- | --- |
| SAGGSAGGSAGSVTVTFISLEEGERYLVLTELRFGDYGIESRSTRIEVSDEKLEELKKAFSAGGSAGGSAGG [r11_47_TrMRF] | 2.12 ± 0.036 |
| SAGGTIKITIKAENLTEEEKEELAKKIADELKKKGYKVKKVEVTVEKEKEKTVTITLENGKKIEVKLSAGGS [r8_485_TrROS_Hall] | 2.56 ± 0.038 |
| SAGGMMYLKLKVKNKNGEEIEVLIEFDEKTGKAYIYNKKTGKKIEMTLEELLKQENIEIEEIEPLPEPSAGG [r13_994_TrROS_Hall] | 4.29 ± 0.12 |
| SAGGSAPAKVEPLRVKIEFTPPNGEKHTFPMEIHRVHDNAIEIQDGGQPIRIPPNLDNIQITDIELSAGGSA [r15_510_TrROS] | 0.558 ± 0.044 |
| SAGGSAVPTVRATFRYPDGLVAELEVPVLPDGTPRVVLRVGGVEREVSLEELARLPPEFELVSVDPSAGGSA [r2_431_TrMRF] | 0.996 ± 0.087 |
| SAGMDFPESYTPIASNGKTLVFKSPTEVYIVLYSPEGGSEVRSFTPGDESVLNPFLEELKKSDYVNLNISAG [r14_12_JUSTAS] | 1.1 ± 0.087 |
| SARILRVEFEPFPLTERARLRLEVEDEDNDFPYEVDIELEVLPDPSEVRLRLVVRRPDGSRRELELRLFSAG [r14_10_TrMRF] | 4.97 ± 0.091 |
| SAGGRIKDIEPIPPNDPPGQKLTIKFPDGGPIEIPMEKEPDENGPYYYKFKLQVNNGEIEVMFRIPNSAGGS [r8_360_TrROS] | 5.47 ± 0.16 |
| SAGMKVILIIAPEEKIEEIFEEIKKIAEEHGLDLKLDKIEPLPEKGYLVIVTVKNPESDETTVILVLVPSAG [r5_41_TrMRF] | 3.75 ± 0.077 |
| SAGGSETVRVEVEVELENGYRVRVEMEFDLETKEMTMRVEVEPVLELSPEELEKLKKLLEELGIEVSAGGSA [r2_304_TrROS_Hall] | 3.43 ± 0.11 |
| SAGGSGTESKEYPDSKVTVTPVPLPLGDGAPVLRVTTVPKLPNGEPVTTVTLVDPDSDVVVTEETLSAGGSA [r2_484_JUSTAS] | 0.925 ± 0.012 |
| SAGGSAGGSAGGMKITLTVPSEEEIEALTPPDAKITEIKKIGKDPVKGLPYYEVVLDPSSAGGSAGGSAGGS [r10_256_JUSTAS] | 0.411 ± 0.033 |
| SAGGSAGGSAGGPRPLRRELRIRRRFRFRVLGLEEGEPRPREFEVEVELVLVETRGPGESAGGSAGGSAGGS [r10_118_TrMRF] | 4.31 ± 0.093 |
| SAGKIKPGQKIKIKITSIEKLKDGTIKIKAEIELEEKGYKITIEAEIKYDKKTKKLTIKVKIKIEPKPSAGG [r19_342_TrROS_Hall] | 4.14 ± 0.18 |
| SMPEVRVEEVTIELEFTLPDGRTVRVEIRLTRVTLPDGRVFTRLEIKVEVPEEDEEARKLLKELLEELLSSA [r9_908_TrROS_Hall] | 4.75 ± 0.13 |
| SAGGSAGGSAGGMTTTTTAPESGDLVTIHPEKGIAVVTSPEGKVTEVPIDPDDYSVEPASAGGSAGGSAGGS [r10_568_JUSTAS] | 1.57 ± 0.079 |
| SAGGEFLEKVIEAAIEAAKAGPDAKLELTIPVPGGPVKVTIEVGEDGKVKVTIYKGDKKILEIELPLSAGGS [r16_611_TrMRF] | 4.62 ± 0.34 |
| SAGGKITIEIEEEDGYLVIRIREEKEVYDEETGELKKEEKEITIVLPLEEAKKLAEELNLEIEIVEPSAGGS [r8_337_TrROS_Hall] | 2.49 ± 0.16 |
| SAGGLTVTLTDSSGNPVTVETELLPDNTLVLTITRTTPSGKTYTRTGIVSIDNTTINLVSFSEWTEDPSAGG [r13_451_JUSTAS] | 3.25 ± 0.08 |
| SAGGPFDDFEPLGTIPFKVNGMEIEIQIWRMKNPGHYMVDIRNPGFGIPVMYWVPPGDIEEILDLIRSAGGS [r8_469_TrROS] | 3.1 ± 0.059 |
| SAGGSAGGSMKIYEVPPEVAENMSLEEIIESLVLPGYPAKAEAFEDEGPGYVLVDLFLPPELGSAGGSAGGS [r12_716_TrMRF] | 1.02 ± 0.029 |
